Results taken from patent publication US20070031442A1.

Tests used:
soluble CD8αα (human) [1] = molecular target: soluble CD8αα (human) (UniProt P01732); test: surface plasmon resonance
soluble CD8αα (human) [2] = molecular target: soluble CD8αα (human) (UniProt P01732); test: method not given
soluble CD8αα (human) [3] = molecular target: soluble CD8αα (human) (UniProt P01732); test: surface plasmon resonance with sCD8αα wt; mean KD (n=3) printed over the bar, error bar drawn; sheet caption 'HLA A*0201 [..] tetramers'
soluble CD8αα (human) [4] = molecular target: soluble CD8αα (human) (UniProt P01732); test: surface plasmon resonance, biotinylated pMHCI monomer

| Kd (soluble CD8αα (human) [1]) [µM] | Kd (soluble CD8αα (human) [2]) [µM] | Kd (soluble CD8αα (human) [3]) [µM] | Kd (soluble CD8αα (human) [4]) [µM] | Substance |
| --- | --- | --- | --- | --- |
| 102 | – | – | – | 245A substituted HLA A*68011 biotinylated pMHCI (from UniProt P61769 21-119) (peptide-MHC) |
| – | < 5 | – | – | A2Kb chimeric class I pMHCI (HLA A2 with the α3 domain of murine H-2K^b) (from UniProt P61769 21-119) (peptide-MHC) |
| – | 128 | 128 | 135 | wild type HLA A*0201 biotinylated pMHCI monomer (from UniProt P61769 21-119) (peptide-MHC) |
| 980 | – | – | – | wild type HLA A*68011 biotinylated pMHCI (from UniProt P61769 21-119) (peptide-MHC) |
